{"source": "patent US20220211037A1", "about": "“BIOSENSORS FOR DROUGHT STRESS IN PLANTS” (The Regents of the University of California, priority 2019, published 2022)", "key": {"[1]": {"target": "1:1 mixture of PYL3 containing PYL3-Cy5.5 and PYL3-BHQ3 (Arabidopsis thaliana)", "assay": "static light scattering of the PYL3-Cy5.5/PYL3-BHQ3 mixture, 1.0 µM ABA"}, "[2]": {"target": "1:1 mixture of PYL3 containing PYL3-Cy5.5 and PYL3-BHQ3 (Arabidopsis thaliana)", "assay": "calculated from static light scattering of the mixture, 1000 µM ABA"}, "[3]": {"target": "1:1 mixture of PYL3 containing PYL3-Cy5.5 and PYL3-BHQ3 (Arabidopsis thaliana)", "assay": "Cy5.5 fluorescence of the PYL3-Cy5.5/PYL3-BHQ3 mixture (quenched in dimers), 100 µM ABA"}, "[4]": {"target": "1:1 mixture of PYL3 containing PYL3-Cy5.5 and PYL3-BHQ3 (Arabidopsis thaliana)", "assay": "calculated from static light scattering of the mixture, 40 µM ABA"}, "[5]": {"target": "1:1 mixture of PYL3 containing PYL3-Cy5.5 and PYL3-BHQ3 (Arabidopsis thaliana)", "assay": "calculated from static light scattering of the mixture, 1.0 µM ABA"}, "[6]": {"target": "1:1 mixture of PYL3 containing PYL3-Cy5.5 and PYL3-BHQ3 (Arabidopsis thaliana)", "assay": "calculated from static light scattering of the mixture, 100 µM ABA"}, "[7]": {"target": "1:1 mixture of PYL3 containing PYL3-Cy5.5 and PYL3-BHQ3 (Arabidopsis thaliana)", "assay": "static light scattering of the PYL3-Cy5.5/PYL3-BHQ3 mixture, 0.1 µM ABA"}, "[8]": {"target": "1:1 mixture of PYL3 containing PYL3-Cy5.5 and PYL3-BHQ3 (Arabidopsis thaliana)", "assay": "Cy5.5 fluorescence of the PYL3-Cy5.5/PYL3-BHQ3 mixture (quenched in dimers), 0.1 µM ABA"}, "[9]": {"target": "1:1 mixture of PYL3 containing PYL3-Cy5.5 and PYL3-BHQ3 (Arabidopsis thaliana)", "assay": "static light scattering of the PYL3-Cy5.5/PYL3-BHQ3 mixture, 1000 µM ABA"}, "[10]": {"target": "1:1 mixture of PYL3 containing PYL3-Cy5.5 and PYL3-BHQ3 (Arabidopsis thaliana)", "assay": "Cy5.5 fluorescence of the PYL3-Cy5.5/PYL3-BHQ3 mixture (quenched in dimers), 40 µM ABA"}, "[11]": {"target": "1:1 mixture of PYL3 containing PYL3-Cy5.5 and PYL3-BHQ3 (Arabidopsis thaliana)", "assay": "static light scattering of the PYL3-Cy5.5/PYL3-BHQ3 mixture, 100 µM ABA"}, "[12]": {"target": "1:1 mixture of PYL3 containing PYL3-Cy5.5 and PYL3-BHQ3 (Arabidopsis thaliana)", "assay": "calculated from static light scattering of the mixture, 0.1 µM ABA"}, "[13]": {"target": "1:1 mixture of PYL3 containing PYL3-Cy5.5 and PYL3-BHQ3 (Arabidopsis thaliana)", "assay": "Cy5.5 fluorescence of the PYL3-Cy5.5/PYL3-BHQ3 mixture (quenched in dimers), 1000 µM ABA"}, "[14]": {"target": "1:1 mixture of PYL3 containing PYL3-Cy5.5 and PYL3-BHQ3 (Arabidopsis thaliana)", "assay": "Cy5.5 fluorescence of the PYL3-Cy5.5/PYL3-BHQ3 mixture (quenched in dimers), 1.0 µM ABA"}, "[15]": {"target": "1:1 mixture of PYL3 containing PYL3-Cy5.5 and PYL3-BHQ3 (Arabidopsis thaliana)", "assay": "static light scattering of the PYL3-Cy5.5/PYL3-BHQ3 mixture, 40 µM ABA"}}, "data": [{"substance": "1:1 mixture of PYL3 containing PYL3-Cy5.5 and PYL3-BHQ3", "values": [{"measurement": "Average molar mass (measured, amu)", "setting": "[1]", "result": 47400, "unit": "amu"}, {"measurement": "PYLs in dimers (hetero- and homodimers, %)", "setting": "[2]", "result": 20, "unit": "%"}, {"measurement": "PYLs in monomers (%)", "setting": "[2]", "result": 80, "unit": "%"}, {"measurement": "Fluorescence (measured)", "setting": "[3]", "result": 6710, "unit": "cps"}, {"measurement": "PYLs in dimers (hetero- and homodimers, %)", "setting": "[4]", "result": 68, "unit": "%"}, {"measurement": "PYLs in monomers (%)", "setting": "[4]", "result": 32, "unit": "%"}, {"measurement": "PYLs in dimers (hetero- and homodimers, %)", "setting": "[5]", "result": 84, "unit": "%"}, {"measurement": "PYLs in monomers (%)", "setting": "[5]", "result": 16, "unit": "%"}, {"measurement": "PYLs in dimers (hetero- and homodimers, %)", "setting": "[6]", "result": 32, "unit": "%"}, {"measurement": "PYLs in monomers (%)", "setting": "[6]", "result": 68, "unit": "%"}, {"measurement": "Average molar mass (measured, amu)", "setting": "[7]", "result": 51100, "unit": "amu"}, {"measurement": "Fluorescence (measured)", "setting": "[8]", "result": 3960, "unit": "cps"}, {"measurement": "Average molar mass (measured, amu)", "setting": "[9]", "result": 31100, "unit": "amu"}, {"measurement": "Fluorescence (measured)", "setting": "[10]", "result": 5300, "unit": "cps"}, {"measurement": "Average molar mass (measured, amu)", "setting": "[11]", "result": 34000, "unit": "amu"}, {"measurement": "PYLs in dimers (hetero- and homodimers, %)", "setting": "[12]", "result": 98, "unit": "%"}, {"measurement": "PYLs in monomers (%)", "setting": "[12]", "result": 2, "unit": "%"}, {"measurement": "Fluorescence (measured)", "setting": "[13]", "result": 9490, "unit": "cps"}, {"measurement": "Fluorescence (measured)", "setting": "[14]", "result": 4290, "unit": "cps"}, {"measurement": "Average molar mass (measured, amu)", "setting": "[15]", "result": 43300, "unit": "amu"}]}]}
